Experimental data from PMC4368157, “The Interaction Affinity between Vascular Cell Adhesion Molecule-1 (VCAM-1) and Very Late Antigen-4 (VLA-4) Analyzed by Quantitative FRET” (PLoS ONE, 2015).

Columns and labels:
[1] = molecular target: T1, Alexa Fluor 488-VLA-4 conjugate (human recombinant Very late antigen-4, soluble form) (human, UniProt P13612 35-977; P05556 21-728, Alexa Fluor 488 on aliphatic amine groups (amine terminus, ε-amino groups of lysines); F/P ratio of the conjugate 3.0 ± 0.8; sites and chain not stated | Alexa Fluor 488 on aliphatic amine groups …); test: FRET or BRET; in solution, steady state; donor AF488-VLA-4 fixed at 350 nM, acceptor AF546-VCAM-1 titrated up to 850 nM; PBS with 1 mM EGTA, 2 mM MgCl2, pH 7.4, 30 minutes, 96-well plate; excitation 470 nm; fit assumes one-to-one interaction; settings: both partners purified
T1 construct: integrin α4 subunit (CD49d) of VLA-4, human, recombinant soluble form; integrin β1 subunit (CD29) of VLA-4, human, recombinant soluble form; also called AF488-VLA-4; A488-VLA-4; source: bought: R&D Systems; conjugated with Alexa Fluor 488 succinimidyl ester, dialysed
T1 sequence (P13612 35-977, chain 1 of 2): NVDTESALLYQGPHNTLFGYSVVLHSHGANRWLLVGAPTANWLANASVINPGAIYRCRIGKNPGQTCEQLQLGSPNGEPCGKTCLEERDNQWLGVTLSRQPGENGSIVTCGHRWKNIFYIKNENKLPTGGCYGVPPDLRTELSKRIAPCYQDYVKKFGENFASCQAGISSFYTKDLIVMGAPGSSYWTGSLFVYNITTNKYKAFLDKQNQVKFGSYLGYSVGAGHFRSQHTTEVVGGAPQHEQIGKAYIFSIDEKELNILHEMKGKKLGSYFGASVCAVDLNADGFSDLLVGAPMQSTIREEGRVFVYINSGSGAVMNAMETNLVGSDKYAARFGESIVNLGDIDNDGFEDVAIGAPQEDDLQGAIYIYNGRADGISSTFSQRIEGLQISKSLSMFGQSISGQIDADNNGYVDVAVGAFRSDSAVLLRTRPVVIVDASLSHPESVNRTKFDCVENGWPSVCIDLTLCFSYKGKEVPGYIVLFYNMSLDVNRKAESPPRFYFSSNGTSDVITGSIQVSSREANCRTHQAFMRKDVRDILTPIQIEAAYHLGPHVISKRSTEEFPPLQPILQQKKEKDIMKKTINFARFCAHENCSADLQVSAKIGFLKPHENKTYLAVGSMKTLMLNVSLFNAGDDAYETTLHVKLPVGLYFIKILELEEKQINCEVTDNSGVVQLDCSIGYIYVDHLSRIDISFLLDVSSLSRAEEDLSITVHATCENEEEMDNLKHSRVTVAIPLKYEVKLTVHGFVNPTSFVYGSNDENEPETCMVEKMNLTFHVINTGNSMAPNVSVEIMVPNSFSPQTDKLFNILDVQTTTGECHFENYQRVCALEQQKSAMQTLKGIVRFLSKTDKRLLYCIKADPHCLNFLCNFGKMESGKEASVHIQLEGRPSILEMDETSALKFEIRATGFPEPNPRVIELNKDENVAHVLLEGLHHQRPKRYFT
T1 sequence (P05556 21-728, chain 2 of 2): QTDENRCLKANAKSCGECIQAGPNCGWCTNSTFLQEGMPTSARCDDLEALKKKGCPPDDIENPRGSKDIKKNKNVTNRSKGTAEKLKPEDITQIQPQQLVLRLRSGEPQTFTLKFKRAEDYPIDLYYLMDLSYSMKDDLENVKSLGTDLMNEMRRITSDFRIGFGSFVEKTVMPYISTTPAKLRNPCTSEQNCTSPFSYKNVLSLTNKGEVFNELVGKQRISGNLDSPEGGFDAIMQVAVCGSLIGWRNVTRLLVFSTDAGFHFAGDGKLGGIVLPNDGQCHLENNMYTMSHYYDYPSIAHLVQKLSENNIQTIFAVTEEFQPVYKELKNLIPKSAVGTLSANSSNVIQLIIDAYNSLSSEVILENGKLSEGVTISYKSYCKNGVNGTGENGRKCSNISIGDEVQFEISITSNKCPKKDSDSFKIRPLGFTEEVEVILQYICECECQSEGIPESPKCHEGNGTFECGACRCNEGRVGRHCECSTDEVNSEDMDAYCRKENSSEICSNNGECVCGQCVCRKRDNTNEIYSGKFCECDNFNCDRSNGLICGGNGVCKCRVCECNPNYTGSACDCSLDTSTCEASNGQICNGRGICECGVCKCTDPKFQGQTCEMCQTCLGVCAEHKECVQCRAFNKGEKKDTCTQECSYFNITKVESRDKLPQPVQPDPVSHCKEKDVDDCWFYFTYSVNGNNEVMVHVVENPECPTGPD

[2] = molecular target: T2, human recombinant VLA-4 (Very late antigen-4, soluble form, without fluorophore) (human, UniProt P13612 35-977; P05556 21-728); test: SPR; BIAcore 3000, CM5 chip; VCAM-1Fc captured by immobilised anti-human IgG (Fc); VLA-4 flowed at 100, 150, 400, 450 and 500 nM; PBS with 1 mM EGTA and 2 mM Mg2+; 5 μl/min; Langmuir model; settings: both partners purified
T2 construct: integrin α4 subunit (CD49d) of VLA-4, human, recombinant soluble form; integrin β1 subunit (CD29) of VLA-4, human, recombinant soluble form; Same bought protein as in m1, not conjugated; also called CD49d/CD29; α4β1; source: bought: R&D Systems
T2 sequence (P13612 35-977, chain 1 of 2): as the sequence (P13612 35-977, chain 1 of 2) above
T2 sequence (P05556 21-728, chain 2 of 2): as the sequence (P05556 21-728, chain 2 of 2) above

B1: Alexa Fluor 546-VCAM-1 conjugate (human recombinant Vascular Cell Adhesion Molecule-1, soluble form) (ligand, UniProt P19320 25-698, looked up)
chain: FKIETTPESRYLAQIGDSVSLTCSTTGCESPFFSWRTQIDSPLNGKVTNEGTTSTLTMNPVSFGNEHSYLCTATCESRKLEKGIQVEIYSFPKDPEIHLSGPLEAGKPITVKCSVADVYPFDRLEIDLLKGDHLMKSQEFLEDADRKSLETKSLEVTFTPVIEDIGKVLVCRAKLHIDEMDSVPTVRQAVKELQVYISPKNTVISVNPSTKLQEGGSVTMTCSSEGLPAPEIFWSKKLDNGNLQHLSGNATLTLIAMRMEDSGIYVCEGVNLIGKNRKEVELIVQEKPFTVEISPGPRIAAQIGDSVMLTCSVMGCESPSFSWRTQIDSPLSGKVRSEGTNSTLTLSPVSFENEHSYLCTVTCGHKKLEKGIQVELYSFPRDPEIEMSGGLVNGSSVTVSCKVPSVYPLDRLEIELLKGETILENIEFLEDTDMKSLENKSLEMTFIPTIEDTGKALVCQAKLHIDDMEFEPKQRQSTQTLYVNVAPRDTTVLVSPSSILEEGSSVNMTCLSQGFPAPKILWSRQLPNGELQPLSENATLTLISTKMEDSGVYLCEGINQAGRSRKEVELIIQVTPKDIKLTAFPSESVKEGDTVIISCTCGNVPETWIILKKKAETGDTVLKSIDGAYTIRKAQLKDAGVYECESKNKVGSQLRSLTLDVQGRENNKDYFSPE
modifications: Alexa Fluor 546 on aliphatic amine groups (amine terminus, ε-amino groups of lysines); F/P ratio 0.60 ± 0.02; sites not stated
notes: Vascular Cell Adhesion Molecule-1 (VCAM-1/CD106), human, recombinant soluble form; also called AF546-VCAM-1; CD106; source: bought: R&D Systems; conjugated with Alexa Fluor 546 succinimidyl ester, dialysed
In the case of B1, the Kd [1] is reported as 41.8 nM.

B2: human recombinant VCAM-1 Fc chimera (Fc fusion, UniProt P19320 25-698, looked up)
chain: FKIETTPESRYLAQIGDSVSLTCSTTGCESPFFSWRTQIDSPLNGKVTNEGTTSTLTMNPVSFGNEHSYLCTATCESRKLEKGIQVEIYSFPKDPEIHLSGPLEAGKPITVKCSVADVYPFDRLEIDLLKGDHLMKSQEFLEDADRKSLETKSLEVTFTPVIEDIGKVLVCRAKLHIDEMDSVPTVRQAVKELQVYISPKNTVISVNPSTKLQEGGSVTMTCSSEGLPAPEIFWSKKLDNGNLQHLSGNATLTLIAMRMEDSGIYVCEGVNLIGKNRKEVELIVQEKPFTVEISPGPRIAAQIGDSVMLTCSVMGCESPSFSWRTQIDSPLSGKVRSEGTNSTLTLSPVSFENEHSYLCTVTCGHKKLEKGIQVELYSFPRDPEIEMSGGLVNGSSVTVSCKVPSVYPLDRLEIELLKGETILENIEFLEDTDMKSLENKSLEMTFIPTIEDTGKALVCQAKLHIDDMEFEPKQRQSTQTLYVNVAPRDTTVLVSPSSILEEGSSVNMTCLSQGFPAPKILWSRQLPNGELQPLSENATLTLISTKMEDSGVYLCEGINQAGRSRKEVELIIQVTPKDIKLTAFPSESVKEGDTVIISCTCGNVPETWIILKKKAETGDTVLKSIDGAYTIRKAQLKDAGVYECESKNKVGSQLRSLTLDVQGRENNKDYFSPE
notes: Vascular Cell Adhesion Molecule-1 (VCAM-1/CD106), human, recombinant soluble form fused to Fc; source: bought: R&D Systems
B2 gave a Kd [2] of 39.6 ± 1.78 nM.
